From patent publication US20250257142A1 (INVETX, published 2025) come the findings set out here.

As a reminder, the Kd is the concentration at which binding is half-saturated. In general, koff refers to a measure of how fast the partners let go of each other. For orientation: kon means a measure of how fast the partners come together.

Changes are numbered by the printed parent chain. Names may count otherwise.

The target in assay [1] is T1, canine IL-31RA (20-308)-AviTag-His Tag, monomeric (canine).
T1 construct: Signal peptide (first 19 residues) left out; also called monomeric IL-31RA
T1 chain: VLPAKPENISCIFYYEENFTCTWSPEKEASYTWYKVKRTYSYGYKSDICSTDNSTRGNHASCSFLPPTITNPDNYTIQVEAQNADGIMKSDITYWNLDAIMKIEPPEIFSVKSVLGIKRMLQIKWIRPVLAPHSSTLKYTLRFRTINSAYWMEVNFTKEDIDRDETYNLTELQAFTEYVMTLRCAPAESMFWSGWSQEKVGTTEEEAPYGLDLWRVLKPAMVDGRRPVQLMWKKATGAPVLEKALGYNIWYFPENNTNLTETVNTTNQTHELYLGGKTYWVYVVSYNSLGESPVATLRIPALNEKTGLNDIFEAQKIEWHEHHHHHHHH
Description: SPR Biacore T200, antibody captured on anti-dog H+L chip, monomeric canine IL-31RA (20-308) as analyte. The procedure:
(§1) The antibody was captured using a CM5 Series S chip amine coupled with an anti-dog H+L antibody (Jackson Immunoresearch). Canine IL-31RA-mFc (100 nM, 50 nM, 25 nM, 12.5 nM, 6.25 nM, 3.625 nM) solutions in 1×HBS-EP+ was flown over the sensor chip for a contact time of 120 s and a dissociation time of 600 s at a flow rate of […]. Double reference-subtracted sensorgrams were fitted to a 1:1 binding model using Biacore T200 Evaluation software. The canine IL-31RA antigen was both a dimer and aggregated so there were avidity effects with the measured affinities. […] Following the initial results with the single variants, a heavy chain containing the W53F variant and the M118I variant was synthesized and subcloned into pcDNA 3.4 (SEQ ID NO:18). The same methods as described above for expression and purification of the variant along with measuring the relative affinity were used to determine the relative affinity of the W53F/M118I heavy chain variant combined with the S95A light chain and the N94Q light chain variants.
To reduce the avidity effects from using the canine IL-31RA-mouse Fc construct in SPR experiments, a monomeric construct was generated which contains amino acids 20-308 of the canine IL-31IRA extracellular domain (SEQ ID NO:28). This construct has the AviTag sequence ([…] (SEQ ID NO:51)) followed by an 8×His(SEQ ID NO:52) tag to facilitate purification. GenScript HD (High Density) CHO-S cells were transiently transfected with pcDNA 3.4 containing Sequence 28 and purified with HisTrap FF chromatography. Further purification of the recombinant protein was completed using gel filtration with Cytiva HiLoad 26/600 Superdex chromatography to isolate the monomeric IL-31RA species. […] These clones were evaluated in an SPR experiment using the same conditions as described for the caninized clones except the analyte is canine IL-31RA (20-308).
For orientation: In SPR one partner is held on a chip, and binding of the other changes the refractive index at the surface.

Assay [2] concerns the target T2, extracellular domain of canine IL-31RA fused to murine IgG2A Fc (canine).
T2 construct: also called Canine IL-31RA-murine IgG2A Fc; Canine IL-31RA-mFc
T2 chain: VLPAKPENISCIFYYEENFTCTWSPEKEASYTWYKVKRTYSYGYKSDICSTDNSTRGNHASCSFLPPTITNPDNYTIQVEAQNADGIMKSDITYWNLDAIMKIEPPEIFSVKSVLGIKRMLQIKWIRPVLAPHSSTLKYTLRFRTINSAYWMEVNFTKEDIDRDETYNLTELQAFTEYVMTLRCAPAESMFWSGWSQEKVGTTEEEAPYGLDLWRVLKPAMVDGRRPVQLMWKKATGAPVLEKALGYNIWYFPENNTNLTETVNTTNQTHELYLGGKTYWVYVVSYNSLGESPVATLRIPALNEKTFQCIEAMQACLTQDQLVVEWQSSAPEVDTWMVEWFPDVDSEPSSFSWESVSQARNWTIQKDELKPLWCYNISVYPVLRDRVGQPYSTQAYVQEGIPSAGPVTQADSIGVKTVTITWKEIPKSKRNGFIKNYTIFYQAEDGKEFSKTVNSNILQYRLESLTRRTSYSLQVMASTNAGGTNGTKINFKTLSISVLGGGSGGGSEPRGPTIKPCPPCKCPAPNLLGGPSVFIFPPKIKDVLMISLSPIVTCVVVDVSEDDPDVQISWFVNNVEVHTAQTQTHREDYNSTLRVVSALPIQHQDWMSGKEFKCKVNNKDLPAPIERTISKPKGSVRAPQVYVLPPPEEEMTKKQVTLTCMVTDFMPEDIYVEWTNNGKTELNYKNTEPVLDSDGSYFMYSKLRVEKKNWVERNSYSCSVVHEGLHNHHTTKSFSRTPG
As to the kind of experiment: SPR Biacore T200, antibody captured on anti-dog H+L chip, canine IL-31RA-mFc as analyte; relative affinity scale: *** 3 pM-100 pM, ** 101 pM-1 nM, * 1.1 nM-20 nM (avidity). The procedure: as §1, with “The different heavy and light chain combinations were co-transfected into ExpiCHO cells using the ExpiCHO transfection kit (ThermoFisher; Cat. #A29133). Seven days following the transient transfection, the IgG in the conditioned medium was purified using MabSelect SuRe chromatography. The antibodies were buffer-exchanged into PBS, pH 7.4. The relative affinity of the variants was determined by SPR on a Biacore T200. The antibody” for “The antibody”

Assay [3] addresses canine IL-31 receptor alpha (IL-31RA) on canine DH-82 cells (canine). Description: cell-based or functional assay.
Assay [4] has as its target T2, extracellular domain of canine IL-31RA …. Description: SPR Biacore T200, antibody captured on anti-human IgG chip, canine IL-31RA-mFc as analyte, 1:1 model. On the procedure:
Canine IL-31RA-murine IgG2A Fc was generated by transiently transfecting pcDNA3.4 containing Sequence 3 into GenScript HD (High Density) CHO-S cells and purified with MabSelect SuRe LX chromatography. Further purification of the recombinant protein was completed using gel filtration with TSKgel G3000SWxi chromatography. […] Antibodies were flowed over the anti-human IgG sensor chip at a concentration of 1 μg/ml in 1×HBS-EP+ (Cytiva, BR100826) for 60 seconds at a flow rate of 10 μL/min. Canine IL-31RA-mFc (100 nM, 50 nM, 25 nM, 12.5 nM, 6.25 nM, […]) solutions in 1×HBS-EP+ was flown over the sensor chips for a contact time of 120 s and a dissociation time of 600 s at a flow rate of 30 μL/min. Double reference-subtracted sensorgrams were fitted to a 1:1 binding model using Biacore T200 Evaluation software and the kinetics of binding are shown below in Table 4.

Assay [5] shares this target. Description: SPR Biacore T200, antibody captured on anti-dog H+L chip, canine IL-31RA-mFc as analyte; relative affinity scale: *** 3 pM-100 pM, ** 101 pM-1 nM, * 1.1 nM-20 nM (avidity). On the procedure:
as §1, with “Seven days following the transient transfection, the IgG in the conditioned medium was purified using MabSelect SuRe chromatography. The antibodies were buffer-exchanged into PBS, pH 7.4. The relative affinity of the variants was determined by SPR on a Biacore T200. The antibody” for “The antibody”

B1: 109-49_IA (109-49 containing the M118I and S95A variants) (antibody, V domains shown)
VH: EVQLVESGGDLVKPGGSLRLSCVASGFTFDDYGMSWVRQAPGKGLQWVSGINWAGGTIGYADAVKGRFTISRDNARNTVYLQMNSLRAEDTAVYYCARESPLRLGDLGGDYFYYYYYIDVWGQGTLVTVSS
VL: EVVMIQTPLSLSVSPGEPASISCRASQSVSSRYLVWYLQKPGQSPQLLIYGTSSRATGVSDRFSGSGSGTDFTLRISRVEAEDVGVYYCQQYDNAPRTFGQGTKVEIKR
notes: Canine IgGB/kappa; signal peptides left out; also called M118I / S95A
In assay [1], B1 gave a Kd of 1.31 nM, an off-rate (koff) of 7.09e-05 s⁻¹ and a kon of 54400 M⁻¹ s⁻¹. Moreover, in assay [2], the “relative affinity (apparent KD by SPR)” value was in the range of 0.003 to 0.1 nM.

B2: Clone 186 (human antibody 186, human IgG1) (antibody, V domains shown)
VH: EVQLLESGGGLIQPGGSLRLSCGASGFTFSSYAMSWVRQAPGKGLEWVSAISGSGNSTYYADSVKGRFTISRDNSKNTLYLQMNSLRAEDTAVYYCATQVVYYFKMDVWGKGTTVTVSS
VL: EIVMTQSPATLSVSPGERATLSCRASQSVSSNLAWYRQKPGQAPRLLIYGASTRATGIPARFSGSGSGTEFTLTISSLQSEDFAVYYCQQYYNWPPFTFGPGTKLDIKR
Consider B2, for which the “IC50 (read off the curve)” value in assay [3] is about 10 nM. In addition, in assay [4], binding was put at a Kd of 1.81 nM, the koff was determined as 0.000118 s⁻¹ and the kon was 65200 M⁻¹ s⁻¹.

B3: 186-95 heavy chain S57A variant with wild-type light chain (antibody, V domains shown)
VH: EVQLVESGGDLVKPGGSLRLSCVASGFTFSSYAMSWVRQAPGKGLQWVSAISGSGNATYYADAVKGRFTISRDNAKNTLYLQMNSLRAEDTAVYYCATQVVYYFKMDVWGQGTLVTVSS
VL: EIVMTQSPGSLAGSAGESVSINCKSSQSVSSNLAWYQQKPGERPKLLIYGASTRASGVPARFSSSGSGTDFTLTINNLQAEDVGDYYCQQYYNWPPFTFGQGTKLEIKR
notes: Canine IgGB/kappa; signal peptides left out; also called S57A / Wild-type
On to B3, for which, in assay [5], the binding result is reported as “binds”.

B4: caninized antibody clone 186-95 (antibody, V domains shown)
VH: B3 VH with A57S
VL: B3 VL
notes: Canine IgGB and canine kappa constant domains
For B4, in assay [5], the binding result is “binds”.

B5: 186-95 wild-type heavy chain with light chain W94Y variant (antibody, V domains shown)
VH: B3 VH with A57S
VL: B3 VL with W94Y
notes: Canine IgGB/kappa; signal peptides left out; also called Wild-type / W94Y
For B5, the binding result in assay [5] is recorded as “binds”.

B6: 186-95 wild-type heavy chain with light chain W94F variant (antibody, V domains shown)
VH: B3 VH with A57S
VL: B3 VL with W94F
notes: Canine IgGB/kappa; signal peptides left out; also called Wild-type / W94F
On to B6, for which the binding result in assay [5] was “binds”.

B7: 186-95_QLF (186-95 containing the N56Q, M106L, and W94F variants) (antibody, V domains shown)
VH: B3 VH with N56Q, A57S, M106L
VL: B3 VL with W94F
notes: Canine IgGB/kappa; signal peptides left out; also called N56Q-M106L / W94F
Turning to B7, in assay [1], the affinity, expressed as Kd, was 2.31 nM; the koff is 0.000161 s⁻¹; the kon is 69800 M⁻¹ s⁻¹. Moreover, in assay [5], the binding result is on record as “binds”.

B8: Clone 109 (human antibody 109, human IgG1) (antibody, V domains shown)
VH: EVQLVESGGGVVRPGGSLRLSCAASGFTFDDYGMSWVRQIPGRGLEWVSGINWAGGTIGYADSVKGRFTVSRDDANNSLYLQMNSLRAEDTALYLCARESPLRLGDLGGDYFYYYYYMDVWGKGTTVTVSS
VL: EIVLTQSPGTLSLSPGERATLSCRASQSVSSRYLVWYQQKPGQAPRLLIYGTSSRATGIPDRFSGSGSGTDFTLTISRLEPEDFAVYYCQQYDNSPRTFGQGTKVEIKR
For B8, the “IC50 (read off the curve)” value in assay [3] is about 4 nM. In assay [4], this molecule showed a Kd of 0.506 nM, a koff of 0.000108 s⁻¹ and a kon of 214000 M⁻¹ s⁻¹.
